Data from publication PMC8888459, “During FeS cluster biogenesis, ferredoxin and frataxin use overlapping binding sites on yeast cysteine desulfurase Nfs1” (The Journal of Biological Chemistry, 2022).

Target: T1, NIA–Isu1 complex with S. cerevisiae Isu1 (S. cerevisiae | E. coli (endogenous in …, UniProt P25374 37-497; Q6Q560 1-94; P0A6A8 1-78; Q03020 28-165)
T1 construct: Nfs1, mitochondrial cysteine desulfurase of S. cerevisiae; Isd11 of S. cerevisiae; acyl carrier protein of E. coli (ACPEc), endogenous in the expression host, 8.6 kD; Isu1, FeS cluster scaffold protein of S. cerevisiae (Isu1Sc); Formed in the reaction mixture from NIA and Isu1Sc; the number of Isu1 chains in the complex was not measured here; also called NIA–Isu1Sc; NIA and Isu1Sc mixture; …
Experiment: pull-down; competition: Yah1^GST (2.5 μM) with NIA (5 μM), with or without Isu1Sc or Isu1Ct (7.5 μM), then Yfh1 WT or DE/KK added (12.5 μM or increasing concentrations); glutathione resin; densitometry, amount without Yfh1 set as 100%; buffer PD
Details: both partners purified

T1 sequence (P25374 37-497, chain 1 of 4): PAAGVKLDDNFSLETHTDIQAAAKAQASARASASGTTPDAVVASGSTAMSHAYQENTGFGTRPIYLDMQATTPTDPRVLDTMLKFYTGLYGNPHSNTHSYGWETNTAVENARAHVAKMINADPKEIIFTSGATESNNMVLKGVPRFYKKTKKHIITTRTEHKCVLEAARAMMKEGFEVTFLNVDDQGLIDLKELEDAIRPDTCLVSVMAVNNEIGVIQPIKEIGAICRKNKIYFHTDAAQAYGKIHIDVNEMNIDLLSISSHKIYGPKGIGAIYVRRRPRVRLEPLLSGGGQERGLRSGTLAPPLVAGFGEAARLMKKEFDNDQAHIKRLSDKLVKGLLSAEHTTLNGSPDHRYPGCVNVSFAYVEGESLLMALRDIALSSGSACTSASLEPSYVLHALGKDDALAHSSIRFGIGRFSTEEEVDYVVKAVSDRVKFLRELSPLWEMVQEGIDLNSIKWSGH
T1 sequence (Q6Q560 whole entry, chain 2 of 4): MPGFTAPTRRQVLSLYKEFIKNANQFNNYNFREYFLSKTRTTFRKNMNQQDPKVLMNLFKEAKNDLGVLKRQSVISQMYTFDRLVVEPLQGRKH
T1 sequence (P0A6A8 whole entry, chain 3 of 4): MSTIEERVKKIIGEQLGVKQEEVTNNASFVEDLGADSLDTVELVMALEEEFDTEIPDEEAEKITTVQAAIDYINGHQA
T1 sequence (Q03020 28-165, chain 4 of 4): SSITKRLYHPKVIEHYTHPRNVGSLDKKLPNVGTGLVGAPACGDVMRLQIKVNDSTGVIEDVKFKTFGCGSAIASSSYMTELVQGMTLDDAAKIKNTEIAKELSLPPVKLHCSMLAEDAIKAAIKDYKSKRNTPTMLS

percent reduction of Nfs1, Isd11 and Isu1 pulled down with Yah1^GST at a fivefold excess of Yfh1 (12.5 μM): 85%
B1: Yfh1 (frataxin) with a C-terminal polyhistidine tag (natural protein, S. cerevisiae, UniProt Q07540 52-174, looked up)
chain: VESSTDGQVVPQEVLNLPLEKYHEEADDYLDHLLDSLEELSEAHPDCIPDVELSHGVMTLEIPAFGTYVINKQPPNKQIWLASPLSGPNRFDLLNGEWVSLRNGTKLTDILTEEVEKAISKSQ
notes: Yfh1, mitochondrial frataxin of S. cerevisiae; also called Yfh1 (WT); source: E. coli expression systems
